Experimental data published in publication doi:10.1101/2023.10.26.564242, “KIF1C activates and extends dynein movement through the FHF cargo adaptor” (bioRxiv, 2023).

T1: full-length KIF1C-GFP (human, UniProt O43896 1-1103)
T1 construct: KIF1C, human, full length; also called KFL
T1 sequence (looked up): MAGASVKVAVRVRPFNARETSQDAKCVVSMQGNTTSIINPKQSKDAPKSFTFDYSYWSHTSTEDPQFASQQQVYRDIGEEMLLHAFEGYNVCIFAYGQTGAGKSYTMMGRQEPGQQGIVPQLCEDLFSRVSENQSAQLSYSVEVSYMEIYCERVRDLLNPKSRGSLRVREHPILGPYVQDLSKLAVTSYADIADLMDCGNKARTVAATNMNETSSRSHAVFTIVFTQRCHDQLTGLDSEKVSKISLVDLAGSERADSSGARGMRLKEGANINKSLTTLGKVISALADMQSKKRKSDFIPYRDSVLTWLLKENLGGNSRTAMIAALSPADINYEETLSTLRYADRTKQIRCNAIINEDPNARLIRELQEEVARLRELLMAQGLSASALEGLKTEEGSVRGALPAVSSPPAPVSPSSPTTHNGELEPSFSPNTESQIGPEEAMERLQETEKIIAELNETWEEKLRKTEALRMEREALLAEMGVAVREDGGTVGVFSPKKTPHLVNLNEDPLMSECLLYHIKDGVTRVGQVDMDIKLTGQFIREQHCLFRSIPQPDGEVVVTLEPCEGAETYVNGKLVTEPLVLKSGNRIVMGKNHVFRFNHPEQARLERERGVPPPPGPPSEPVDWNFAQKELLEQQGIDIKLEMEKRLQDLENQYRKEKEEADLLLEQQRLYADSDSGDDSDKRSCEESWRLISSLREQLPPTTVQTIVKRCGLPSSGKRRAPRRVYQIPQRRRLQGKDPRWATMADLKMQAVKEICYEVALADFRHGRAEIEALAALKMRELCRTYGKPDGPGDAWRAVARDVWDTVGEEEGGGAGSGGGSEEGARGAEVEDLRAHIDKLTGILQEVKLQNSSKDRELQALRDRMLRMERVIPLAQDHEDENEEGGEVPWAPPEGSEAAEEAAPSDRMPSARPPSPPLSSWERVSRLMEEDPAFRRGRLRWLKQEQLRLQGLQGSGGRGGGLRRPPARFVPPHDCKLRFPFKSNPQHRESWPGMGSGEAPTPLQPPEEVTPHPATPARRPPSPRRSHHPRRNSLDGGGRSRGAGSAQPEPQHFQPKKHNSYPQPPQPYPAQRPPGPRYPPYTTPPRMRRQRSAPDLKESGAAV

T2: HOOK3 residues 451-718 (as in FH^451-718F) (human, UniProt Q86VS8 451-718)
T2 construct: The HOOK3 chain of m12, written alone for the row of two; also called HOOK3 C-terminal fragment; not shown: Strep II, N-terminal, cleaved
T2 sequence (looked up): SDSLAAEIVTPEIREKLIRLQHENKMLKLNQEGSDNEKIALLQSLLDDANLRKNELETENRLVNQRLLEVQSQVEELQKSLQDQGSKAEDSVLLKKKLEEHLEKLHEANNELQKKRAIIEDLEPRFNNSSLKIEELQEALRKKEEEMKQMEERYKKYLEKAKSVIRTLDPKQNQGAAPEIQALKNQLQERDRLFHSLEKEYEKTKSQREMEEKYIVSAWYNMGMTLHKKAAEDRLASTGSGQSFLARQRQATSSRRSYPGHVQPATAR

T3: HOOK3, full length (as in full-length FHF) (human, UniProt Q86VS8 1-718)
T3 construct: HOOK3, human, full length; gene codon optimised for Sf9; The HOOK3 chain of full-length FHF, written alone for the rows of two; not shown: Strep II, N-terminal, cleaved
T3 sequence (looked up): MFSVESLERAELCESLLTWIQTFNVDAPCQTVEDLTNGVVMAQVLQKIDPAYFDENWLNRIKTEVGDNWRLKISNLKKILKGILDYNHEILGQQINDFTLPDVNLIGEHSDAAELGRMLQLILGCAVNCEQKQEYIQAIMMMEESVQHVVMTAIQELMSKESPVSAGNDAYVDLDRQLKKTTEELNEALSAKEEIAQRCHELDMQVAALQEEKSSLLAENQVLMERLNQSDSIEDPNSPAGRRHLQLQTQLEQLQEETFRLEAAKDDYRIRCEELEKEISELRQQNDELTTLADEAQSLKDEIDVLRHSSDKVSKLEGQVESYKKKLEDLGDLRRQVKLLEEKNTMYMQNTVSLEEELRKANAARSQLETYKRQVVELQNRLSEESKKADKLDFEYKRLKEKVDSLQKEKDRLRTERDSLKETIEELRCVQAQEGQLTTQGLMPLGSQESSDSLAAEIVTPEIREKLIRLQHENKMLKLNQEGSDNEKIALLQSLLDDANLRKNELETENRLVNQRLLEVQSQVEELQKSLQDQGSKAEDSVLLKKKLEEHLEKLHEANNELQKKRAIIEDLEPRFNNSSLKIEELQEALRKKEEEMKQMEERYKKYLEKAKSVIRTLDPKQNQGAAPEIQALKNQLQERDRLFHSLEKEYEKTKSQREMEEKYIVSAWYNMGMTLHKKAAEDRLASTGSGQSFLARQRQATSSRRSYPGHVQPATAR

B1: HOOK3 C-terminal fragment (residues 571-718) (domain or fragment, human, UniProt Q86VS8 571-718, looked up)
chain: DLEPRFNNSSLKIEELQEALRKKEEEMKQMEERYKKYLEKAKSVIRTLDPKQNQGAAPEIQALKNQLQERDRLFHSLEKEYEKTKSQREMEEKYIVSAWYNMGMTLHKKAAEDRLASTGSGQSFLARQRQATSSRRSYPGHVQPATAR
notes: The HOOK3 chain of the FHF cryo-EM construct, written alone for the rows of two; not shown: Strep II, N-terminal, cleaved
B2: GST-KIF1C stalk (residues 642-922) (domain or fragment, human, UniProt O43896 642-922, looked up)
chain: EMEKRLQDLENQYRKEKEEADLLLEQQRLYADSDSGDDSDKRSCEESWRLISSLREQLPPTTVQTIVKRCGLPSSGKRRAPRRVYQIPQRRRLQGKDPRWATMADLKMQAVKEICYEVALADFRHGRAEIEALAALKMRELCRTYGKPDGPGDAWRAVARDVWDTVGEEEGGGAGSGGGSEEGARGAEVEDLRAHIDKLTGILQEVKLQNSSKDRELQALRDRMLRMERVIPLAQDHEDENEEGGEVPWAPPEGSEAAEEAAPSDRMPSARPPSPPLSSWE
notes: also called KS; Ks; source: E. coli SoluBL21, purified (Ni-NTA, Superdex 200); not shown: GST, N-terminal, kept
B3: HOOK3-SNAPf labelled with Alexa 647 (natural protein, human, UniProt Q86VS8 1-718, looked up)
chain: T3 sequence (looked up)
modifications: benzylguanine conjugated fluorophore (Alexa 647) on the SNAPf domain
notes: HOOK3, amplified from a human cDNA library, full length; pFastBacM13-8xHis-ZZ-LTLT-HOOK3-SNAPf; An untagged full-length HOOK3 from the same backbone was used in assays with Lis1; source: Sf9 (baculovirus), purified (Ni-NTA, IgG Sepharose, TEV cleavage); not shown: 8xHis, N-terminal, cleaved; ZZ, N-terminal, cleaved; SNAPf, C-terminal, kept
B4: GST-KIF1C stalk 674-922 (domain or fragment, human, UniProt O43896 674-922, looked up)
chain: SDSGDDSDKRSCEESWRLISSLREQLPPTTVQTIVKRCGLPSSGKRRAPRRVYQIPQRRRLQGKDPRWATMADLKMQAVKEICYEVALADFRHGRAEIEALAALKMRELCRTYGKPDGPGDAWRAVARDVWDTVGEEEGGGAGSGGGSEEGARGAEVEDLRAHIDKLTGILQEVKLQNSSKDRELQALRDRMLRMERVIPLAQDHEDENEEGGEVPWAPPEGSEAAEEAAPSDRMPSARPPSPPLSSWE
notes: also called KIF1CS2; source: E. coli SoluBL21, purified (Ni-NTA, Superdex 200); not shown: GST, N-terminal, kept

Legend:
[1] = target: the molecule itself; experiment: cryo-EM structure; FHF with full-length FTS and FHIP1B and HOOK3 571-718, 0.9 mg/ml with 0.1% CHAPSO or 0.005% Igepal; 3.2 Å reconstruction
[2] = target: B4; experiment: cross-linking; cross-linking mass spectrometry with 10 mM EDC or 5 mM DSSO, room temperature, 60 minutes; full-length FHF or FH^571-718F bound to KIF1C stalk 674-922; conditions: both partners purified
[3] = target: T4, full-length FTS-HOOK3-FHIP1B (FHF) complex (human, UniProt Q9H8T0 1-292; Q86VS8 1-718; Q8N612 1-972); experiment: cell-based or functional assay
[4] = target: B3; experiment: cell-based or functional assay
[5] = target: T4, full-length FTS-HOOK3-FHIP1B (FHF) …; experiment: mass photometry; full-length FHF with KIF1C stalk, diluted to 100 nM in GF150; Refeyn TwoMP; conditions: both partners purified
[6] = target: T1, full-length KIF1C-GFP; experiment: single-molecule TIRF co-movement on microtubules; TMR-dynein, dynactin, HOOK3-Alexa 647 and KIF1C-GFP mixed (200 nM dynein, 200 nM dynactin, 1600 nM adaptor, 180 nM KIF1C-GFP, ~75 mM KCl), diluted and imaged on taxol microtubules at 25 °C; controls with single components omitted; conditions: both partners purified
[7] = target: T2, HOOK3 residues 451-718 (as in …); experiment: cryo-EM structure; FH^451-718F bound to GST-KIF1C stalk 674-922; low resolution at the KIF1C density; conditions: both partners purified
[8] = target: T3, HOOK3, full length (as in full-length …); experiment: cross-linking; cross-linking mass spectrometry with 10 mM EDC or 5 mM DSSO, room temperature, 60 minutes; full-length FHF or FH^571-718F bound to KIF1C stalk 674-922; conditions: both partners purified

T4 sequence (Q9H8T0 whole entry, chain 1 of 2): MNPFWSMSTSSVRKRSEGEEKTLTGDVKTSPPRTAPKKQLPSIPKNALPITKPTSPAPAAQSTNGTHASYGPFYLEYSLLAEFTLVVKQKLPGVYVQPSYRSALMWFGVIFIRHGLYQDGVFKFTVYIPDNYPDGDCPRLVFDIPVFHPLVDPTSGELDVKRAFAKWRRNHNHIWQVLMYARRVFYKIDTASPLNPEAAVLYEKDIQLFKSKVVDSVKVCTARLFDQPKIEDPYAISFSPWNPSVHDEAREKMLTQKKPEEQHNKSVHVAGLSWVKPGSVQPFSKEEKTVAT
T4 sequence (Q8N612 whole entry, chain 3 of 2): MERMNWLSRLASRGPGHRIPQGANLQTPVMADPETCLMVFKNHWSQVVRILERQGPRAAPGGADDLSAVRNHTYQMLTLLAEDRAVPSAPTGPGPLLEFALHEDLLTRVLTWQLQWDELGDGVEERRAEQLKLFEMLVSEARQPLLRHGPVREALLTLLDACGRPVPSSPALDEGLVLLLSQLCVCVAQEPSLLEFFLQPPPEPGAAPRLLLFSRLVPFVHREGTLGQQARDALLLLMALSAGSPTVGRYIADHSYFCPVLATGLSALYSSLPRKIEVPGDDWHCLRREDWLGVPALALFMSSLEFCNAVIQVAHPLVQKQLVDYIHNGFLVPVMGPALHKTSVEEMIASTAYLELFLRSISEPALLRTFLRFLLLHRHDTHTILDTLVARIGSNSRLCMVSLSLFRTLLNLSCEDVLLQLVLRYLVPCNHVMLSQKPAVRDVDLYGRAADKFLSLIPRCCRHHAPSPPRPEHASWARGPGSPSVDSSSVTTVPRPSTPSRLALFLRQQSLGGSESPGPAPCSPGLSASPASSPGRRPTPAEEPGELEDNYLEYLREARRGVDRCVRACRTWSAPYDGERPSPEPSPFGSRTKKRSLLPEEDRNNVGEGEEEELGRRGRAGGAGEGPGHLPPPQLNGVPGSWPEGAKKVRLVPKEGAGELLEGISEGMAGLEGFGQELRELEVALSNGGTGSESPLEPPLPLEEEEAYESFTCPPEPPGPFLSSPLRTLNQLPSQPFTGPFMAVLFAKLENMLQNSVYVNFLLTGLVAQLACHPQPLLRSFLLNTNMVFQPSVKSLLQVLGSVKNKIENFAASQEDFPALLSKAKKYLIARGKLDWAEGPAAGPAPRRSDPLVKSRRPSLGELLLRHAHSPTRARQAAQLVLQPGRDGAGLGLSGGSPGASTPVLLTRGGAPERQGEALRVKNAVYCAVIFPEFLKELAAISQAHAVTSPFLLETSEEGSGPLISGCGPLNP

Binder: B1
- binding result [1]: binds
- binding result [2]: binds

Binder: B2
- processive events of dynein-dynactin-FHF (TIRF), with KIF1C stalk against a DDFHF control [3]: ~3.7 fold
- dynein microtubule recruitment (TMR-dynein landing rate, TIRF) with dynactin, HOOK3 and Lis1, with against without the KIF1C stalk construct (GST-KIF1C642-922-GFP in this assay) [4]: 2.6 fold
- stoichiometry N [5]: 1 dimeric KIF1C stalk per FHF

Binder: B3
- binding result [6]: binds

Binder: B4
- binding result [7]: binds
- binding result [8]: binds
